In the supplement of paper PMC12042874:
± gives the uncertainty stated by the source.

assay: amyloid nucleation score (Sup35N fusion, yeast selection) (log enrichment); library NNK2; higher = more nucleation; inactive = no reads after selection
Outline: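 Sup35N was fused to peptides of 20 random codons and expressed in psi-negative yeast, which were induced with 100 μM copper sulfate for 24 hours and then grown on medium lacking adenine and uracil for 7 days at 30°C. Plasmid inserts from input and output were sequenced on Illumina. The nucleation score is the DiMSum log enrichment of output over input reads, centred on the mode score of non-aggregating sequences. Sequences with under 100 input reads were left out, and random libraries had three technical output replicates.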

Row | Substance | amyloid nucleation score
1 | LYYGNPEKIPADGLSSHIMQ | 3.7 ± 0.063
2 | EVTSTY | 0.501 ± 0.46
3 | AHIREMNVSGGCWLVQWVSK | 9.497 ± 0.038
4 | RSAWYTG | -0.203 ± 0.5
5 | KSTATSYVMPK | -0.072 ± 0.25
6 | RSIMIRHLKFRARGHTFSVN | 0.143 ± 0.36
7 | MRLFVEFSVVLFYSFFNPFF | inactive
8 | HTSFIMYMYHSRIWHGMYQT | inactive
9 | CSLTSFAGNSIYFRWRANT | 1.18 ± 0.14
10 | MRWFNNVFFGYVVSVSRSWN | -1.01 ± 1.1
11 | RMFSIRFMWCFCSRRKPLLG | inactive
12 | MRQSNDWLFFLTNGTKCGEL | -0.162 ± 0.46
13 | NLQRFSQPKIHRPNTMPLNV | inactive
14 | RSLHFFTSMHMCGRCLNRLF | 0.048 ± 0.45
15 | IYRGESIIWVNNSWIEDSLR | 1.56 ± 0.12
16 | YPFLIS | -0.922 ± 1
17 | PLVEDLRSIYLVRCSAYLQR | 0.593 ± 0.33
18 | EGIVAMAERYYSSNIRAVTW | 0.296 ± 0.32
19 | QSYVLMC | -0.233 ± 0.48
20 | FQDTLDLRRLRYWCYPKLGL | -0.69 ± 0.55
21 | YVENTGASCFGAYK | 2.25 ± 0.11
22 | TLIIWLTSICVVSGFVLSGE | 0.137 ± 0.25

Row | Substance | amyloid nucleation score
23 | SYKMGEFTTFSLSRICK | 1.12 ± 0.27
24 | PFRGYFGVLSYAVFGEAGPV | 4.4 ± 0.067
25 | VRFLVISINAYSVDVPHISI | -1.63 ± 1.1
26 | NQVQCKCSYKVVEVG | 0.408 ± 0.2
27 | VNLTSFYLITDCTLNGQQWR | 8.654 ± 0.052
28 | TFKVVSKDNI | -0.317 ± 0.41
29 | PQHFGEPTLIMVGKGLGCLR | 0.178 ± 0.77
30 | MCCFRNSNVGAYRSSSIVNG | -0.403 ± 1
31 | GVHLYLNVYVTLKFTATGDS | 5.79 ± 0.077
32 | SVWPGRSAEASRFGFGAGAD | 0.528 ± 0.49
33 | VLYRLKVKAQWSLS | 0.878 ± 0.28
34 | DVNISASNEVALIASDRLLC | -0.149 ± 0.55
35 | KVSDRVGLEPKVCAQRRRNL | 0.025 ± 0.27
36 | NKRGQFMNMQLEKSLYFQGL | -1.15 ± 0.76
37 | STELYARMVKCCVGIADYTD | 0.491 ± 0.66
38 | DRVNGYIIGRLTAYTSVSKD | -0.317 ± 1.1
39 | WFYLCMFGAYLWRVRFDIRK | -0.428 ± 0.34
40 | RGSVNCGLFLSRKSDASGRG | 0.234 ± 0.57
41 | KKKDSAKLLVTE | -0.409 ± 0.76
42 | KDLPFGTYGNGGAGSRTMRH | 0.19 ± 0.27
43 | TGYHNLMGVLGMVAVKHELG | -0.09 ± 0.25
44 | RRSDKLAVLWYSDKRMARWS | -0.582 ± 0.33

Row | Substance | amyloid nucleation score
45 | YSTRRLGHLMC | -0.381 ± 0.79
46 | KLSWRIRA | 0.403 ± 0.42
47 | CHLIVICIQFDKLNLESAFH | 0.547 ± 0.81
48 | SRRDGCGAPSKTSNWA | 0.64 ± 0.8
49 | AVSYVDILAFGLMFQKSLGK | 5.74 ± 0.063
50 | LKWRVRWAIKED | 0.547 ± 0.21
51 | NCFDKMHKIWLFLLSLSIFC | inactive
52 | SRERPHFPLLIPGENMIMLM | 1.04 ± 0.1
53 | WLAICVARWSETYCMFVWTT | -0.441 ± 1.1
54 | TIVLGSPANHHTLKCKERGK | 0.197 ± 0.56
55 | LFVCNSMP | 0.35 ± 0.8
56 | MLNSVLAQAMRH | 1.28 ± 0.53
57 | ASSTRRSRSFNIGILCMFRM | 5.66 ± 0.06
58 | LEMCVLR | 0.23 ± 0.45
59 | RACFHHIIGDCCYASFN | 8.757 ± 0.05
60 | RLRVY | -0.781 ± 0.35
61 | YISIPDVCLLHSIPQSRASI | inactive
62 | VICCEVLPSAPLSLWMNLKV | -0.469 ± 1.1
63 | LHNMNWPLFVLVACLVDIPT | -0.724 ± 0.42
64 | LRVMSVRYSICVKYNVEFRL | 1.18 ± 0.21
65 | QTTDNFIVKHALCNVA | -0.622 ± 0.34
66 | LIVGAIASLHHTLQVNGSPN | 4.59 ± 0.11

Row | Substance | amyloid nucleation score
67 | LCNSTNSESIIVLDITALTH | 0.405 ± 0.51
68 | VFTTLDWTSKYALIR | 0.56 ± 0.5
69 | RCFMGVA | 0.276 ± 0.65
70 | PIGRSCIYHKWE | 1.98 ± 0.18
71 | GSVTRGVRRAY | 4.73 ± 0.06
72 | SFKHLT | -0.853 ± 1.1
73 | SRVIVGLWYDGRVKPLELCM | 0.342 ± 0.62
74 | LGVESTCRSWFMFLGTQRIA | -0.342 ± 1
75 | RDKPPVSKYTSRTREFMLVR | 0.987 ± 0.39
76 | TRVLYPACVCHGRSISFGVE | 0.134 ± 0.44
77 | MPGMVTSCTVFCNQFKMETC | 6.457 ± 0.061
78 | CSNYQRYTILVYPTRSYGCL | 0.558 ± 0.6
79 | FFHYVNAQVRGWLCTVYIIR | -0.574 ± 0.55
80 | GDYSCVHQVRKIDM | 0.162 ± 0.18
81 | VTRFLISYTRIGRMYSVGFV | -0.523 ± 1
82 | ESTLDC | 0.343 ± 0.41
83 | SEAYEGFSYSVLQYEP | -0.092 ± 0.36
84 | SLVIKTLMIFAYSGATVSRG | -0.545 ± 0.64
85 | SGCCR | -0.925 ± 1
86 | KVSVTMHLAKMDFCRLWG | 7.11 ± 0.046
87 | FHAKRTINMNGATVQYGLYA | -0.354 ± 0.76
